# Experimental data as given in PMC4631118 (Molecular microbiology, 2012).
# Substitutions are numbered along the chain they refer to. Numbers in names are those of the source.
# T1: MBP-A2 (Qβ lysis protein A2 fused to E. coli maltose-binding protein) (bacteriophage Qβ, UniProt Q8LTE2 1-420)
# T1 sequence (looked up): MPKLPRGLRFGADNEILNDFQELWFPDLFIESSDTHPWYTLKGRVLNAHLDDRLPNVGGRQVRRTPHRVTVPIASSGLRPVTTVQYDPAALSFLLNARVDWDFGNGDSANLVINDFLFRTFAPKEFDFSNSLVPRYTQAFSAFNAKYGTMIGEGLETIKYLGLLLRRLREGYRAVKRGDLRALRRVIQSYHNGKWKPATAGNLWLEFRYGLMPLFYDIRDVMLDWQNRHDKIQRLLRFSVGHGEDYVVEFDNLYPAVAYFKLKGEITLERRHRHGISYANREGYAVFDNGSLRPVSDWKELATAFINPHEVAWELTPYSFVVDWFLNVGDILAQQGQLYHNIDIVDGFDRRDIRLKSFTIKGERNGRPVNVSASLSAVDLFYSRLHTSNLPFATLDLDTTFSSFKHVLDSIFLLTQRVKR
# T2: A2 cleaved from the MBP fusion protein with TEV protease (bacteriophage Qβ, UniProt Q8LTE2 1-420)
# T2 sequence (looked up): T1 sequence (looked up)
# B1: MurA (E. coli), purified, with C-terminal oligo-histidine tag (enzyme)
# chain: MDKFRVQGPTKLQGEVTISGAKNAALPILFAALLAEEPVEIQNVPKLKDVDTSMKLLSQLGAKVERNGSVHIDARDVNVFCAPYDLVKTMRASIWALGPLVARFGQGQVSLPGGCTIGARPVDLHISGLEQLGATIKLEEGYVKASVDGRLKGAHIVMDKVSVGATVTIMCAATLAEGTTIIENAAREPEIVDTANFLITLGAKISGQGTDRIVIEGVERLGGGVYRVLPDRIETGTFLVAAAISRGKIICRNAQPDTLDAVLAKLRDAGADIEVGEDWISLDMHGKRPKAVNVRTAPHPAFPTDMQAQFTLLNLVAEGTGFITETVFENRFMHVPELSRMGAHAEIESNTVICHGVEKLSGAQVMATDLRASASLVLAGCIAEGTTVVDRIYHIDRGYERIEDKLRALGANIERVKGE
# B2: MurA^D305A, purified (enzyme, E. coli)
# chain: B1 chain with D305A
# What was measured:
# [1] = target: T1, MBP-A2 (Qβ lysis protein A2 fused to E. …); assay: pull-down
# [2] = target: T2, A2 cleaved from the MBP fusion protein …; assay: fusion cleavage assay
Binder,binding result [1],binding result [2]
B1,binds,
B2,,binds
